One assay deals with T1, CtKti12NTD (Thermochaetoides thermophila, UniProt G0SHI1).
T1 sequence (G0SHI1 2-252): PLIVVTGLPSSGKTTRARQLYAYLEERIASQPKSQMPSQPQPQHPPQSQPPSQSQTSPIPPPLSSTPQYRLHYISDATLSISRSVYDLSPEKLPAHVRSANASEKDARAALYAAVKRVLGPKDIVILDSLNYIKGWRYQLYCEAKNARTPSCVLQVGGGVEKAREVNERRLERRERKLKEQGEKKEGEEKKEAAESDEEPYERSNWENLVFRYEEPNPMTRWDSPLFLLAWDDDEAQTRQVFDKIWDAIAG
The assay is described as follows: X-ray crystal structure, […] Å. In kind it is binding. Particulars: bound as ADP·AlF3 with Mg2+, transition state mimic; nucleotide site.

Assay [1] has as its target T2, CtKti12 (also ChKti12), full length (Thermochaetoides thermophila, UniProt G0SHI1).
T2 sequence (G0SHI1 1-378): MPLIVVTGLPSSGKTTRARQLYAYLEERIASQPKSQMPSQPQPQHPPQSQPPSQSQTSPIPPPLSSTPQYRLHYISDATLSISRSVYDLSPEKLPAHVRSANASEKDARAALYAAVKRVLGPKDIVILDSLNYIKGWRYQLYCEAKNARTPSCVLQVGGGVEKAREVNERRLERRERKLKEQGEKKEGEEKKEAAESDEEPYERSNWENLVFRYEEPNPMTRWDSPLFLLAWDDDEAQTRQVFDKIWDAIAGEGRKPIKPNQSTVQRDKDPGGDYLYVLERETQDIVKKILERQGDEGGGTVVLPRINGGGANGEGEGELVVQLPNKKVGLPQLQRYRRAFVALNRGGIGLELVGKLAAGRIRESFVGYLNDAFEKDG
The settings on record: 1 mM ATP; 2 mM MgCl2; pH 7.5.

In assay [2] the target is T3, GST-ScElp1 first WD40 domain (aa 42-431) (Saccharomyces cerevisiae, UniProt Q06706 42-431).
T3 sequence (looked up): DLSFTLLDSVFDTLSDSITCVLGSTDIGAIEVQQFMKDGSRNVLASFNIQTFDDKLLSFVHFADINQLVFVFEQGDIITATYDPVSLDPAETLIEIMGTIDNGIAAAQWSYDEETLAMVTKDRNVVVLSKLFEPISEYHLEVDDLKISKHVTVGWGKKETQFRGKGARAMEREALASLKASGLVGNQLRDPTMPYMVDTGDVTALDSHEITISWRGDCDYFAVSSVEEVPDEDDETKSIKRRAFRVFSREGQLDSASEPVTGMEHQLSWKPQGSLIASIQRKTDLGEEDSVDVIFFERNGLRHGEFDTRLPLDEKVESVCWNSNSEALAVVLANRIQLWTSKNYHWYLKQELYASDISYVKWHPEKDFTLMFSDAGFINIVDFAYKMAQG
Nature of the assay: pull-down.

The target in another assay is T4, Full length GST-ScElp1 (Saccharomyces cerevisiae, UniProt Q06706 1-1349).
T4 sequence (looked up): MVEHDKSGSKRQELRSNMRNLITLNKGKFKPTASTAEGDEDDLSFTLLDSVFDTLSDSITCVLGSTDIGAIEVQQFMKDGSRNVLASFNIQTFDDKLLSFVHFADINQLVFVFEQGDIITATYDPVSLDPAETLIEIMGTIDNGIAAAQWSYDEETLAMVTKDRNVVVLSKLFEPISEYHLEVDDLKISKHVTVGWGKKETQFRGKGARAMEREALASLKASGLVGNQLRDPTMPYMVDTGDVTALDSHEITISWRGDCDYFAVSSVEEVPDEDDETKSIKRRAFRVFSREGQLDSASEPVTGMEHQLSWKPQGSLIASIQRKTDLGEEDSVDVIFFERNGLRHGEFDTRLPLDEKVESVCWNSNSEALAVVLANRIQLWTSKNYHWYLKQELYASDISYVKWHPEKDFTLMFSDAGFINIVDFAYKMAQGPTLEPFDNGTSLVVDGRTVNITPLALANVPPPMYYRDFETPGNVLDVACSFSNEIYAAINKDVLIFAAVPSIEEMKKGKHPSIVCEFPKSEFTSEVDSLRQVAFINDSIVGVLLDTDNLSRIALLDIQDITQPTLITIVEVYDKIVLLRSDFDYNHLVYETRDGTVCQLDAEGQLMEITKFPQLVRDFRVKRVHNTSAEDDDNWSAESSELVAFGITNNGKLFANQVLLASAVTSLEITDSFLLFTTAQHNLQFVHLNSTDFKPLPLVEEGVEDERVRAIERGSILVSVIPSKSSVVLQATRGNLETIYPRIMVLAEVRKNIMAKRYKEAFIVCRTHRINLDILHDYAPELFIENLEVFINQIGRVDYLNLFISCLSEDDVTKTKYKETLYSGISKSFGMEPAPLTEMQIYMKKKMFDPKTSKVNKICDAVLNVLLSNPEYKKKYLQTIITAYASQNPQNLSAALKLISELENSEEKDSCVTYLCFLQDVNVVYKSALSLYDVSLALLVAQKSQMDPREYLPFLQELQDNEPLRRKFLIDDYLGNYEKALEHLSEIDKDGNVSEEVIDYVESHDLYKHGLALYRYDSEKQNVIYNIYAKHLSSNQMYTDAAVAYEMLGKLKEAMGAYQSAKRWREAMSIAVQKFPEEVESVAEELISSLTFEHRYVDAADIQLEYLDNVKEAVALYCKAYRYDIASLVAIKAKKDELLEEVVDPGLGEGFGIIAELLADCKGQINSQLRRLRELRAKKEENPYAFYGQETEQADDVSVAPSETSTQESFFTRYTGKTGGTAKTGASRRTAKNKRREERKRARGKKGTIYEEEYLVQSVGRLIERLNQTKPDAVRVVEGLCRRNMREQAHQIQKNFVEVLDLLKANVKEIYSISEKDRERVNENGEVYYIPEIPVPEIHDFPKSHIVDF
Nature of the assay: pull-down.

Assay [3] has as its target T5, GST-ScElp1 first and second WD40 domains (aa 1-734) (Saccharomyces cerevisiae, UniProt Q06706 1-734).
T5 sequence (looked up): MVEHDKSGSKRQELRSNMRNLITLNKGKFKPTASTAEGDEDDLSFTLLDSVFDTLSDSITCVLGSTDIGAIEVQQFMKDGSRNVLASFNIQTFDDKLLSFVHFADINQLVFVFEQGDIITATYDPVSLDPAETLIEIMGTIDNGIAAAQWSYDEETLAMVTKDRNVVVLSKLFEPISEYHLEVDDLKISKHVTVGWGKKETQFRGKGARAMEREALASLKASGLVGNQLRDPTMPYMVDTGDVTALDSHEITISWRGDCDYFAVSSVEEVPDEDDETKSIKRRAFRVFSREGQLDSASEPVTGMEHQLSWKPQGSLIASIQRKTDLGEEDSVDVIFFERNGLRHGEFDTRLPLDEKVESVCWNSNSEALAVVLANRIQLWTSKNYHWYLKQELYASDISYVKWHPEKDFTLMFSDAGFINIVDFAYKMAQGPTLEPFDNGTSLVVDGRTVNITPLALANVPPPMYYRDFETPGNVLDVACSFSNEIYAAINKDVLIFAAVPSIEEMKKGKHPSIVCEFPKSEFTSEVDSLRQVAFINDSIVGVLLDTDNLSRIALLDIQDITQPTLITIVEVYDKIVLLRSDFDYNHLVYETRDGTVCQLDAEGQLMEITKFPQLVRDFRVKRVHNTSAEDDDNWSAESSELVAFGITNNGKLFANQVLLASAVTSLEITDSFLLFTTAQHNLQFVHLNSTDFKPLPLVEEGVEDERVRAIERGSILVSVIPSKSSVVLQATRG
Nature of the assay: pull-down.

Experimental findings from PMC6511879 (Nucleic Acids Research, 2019) are described below.

Take `Nc1ncnc2c1ncn2[C@@H]1O[C@H](COP(=O)(O)OP(=O)(O)O)[C@@H](O)[C@H]1O` [ADP]: the “X-ray crystal structure, 2.4 Å” value at CtKti12NTD was “We solved the structure of CtKti12NTD in complex with ADP·AlF3”.

Consider `Nc1ncnc2c1ncn2[C@@H]1O[C@H](COP(=O)(O)OP(=O)(O)OP(=O)(O)O)[C@@H](O)[C@H]1O` [ATP], for which the dTm result in assay [1] is “addition of ATP contributed to an increased thermostability of CtKti12 and ScKti12 in vitro”.

B1: ScKti12-6xHis (Saccharomyces cerevisiae Kti12, wild type) (natural protein)
chain: MPLVLFTGYPCSGKTTLAKHLVQLLQSKIDATPSLSKYSITYHSDESLGIKHSDYITSQDERKLRSEIISAVKRDLSKNKIVIVDSLNYIKGFRYQLHCEVKNLSTTFCVIQTLCPPETIFEWNKTSNPNPWEPELLNQLIQRYEEPNSSNRWDSPLFAILTPQDNITDYIDDICKVVFQTSKSAKNSGHNDPLSKGLQKPNSATVLKPASQSNFIQVLDIETSKIIKTIMNHIKSLTSIGGVSNGTRVIVSEGITDINDDGCFFVDLPIGNVVTLAQLQRLKRQFINFNKLRDIDQDRIGPLFADYLNKNLN
On to B1, for which the binding result (in assay [2]; with Full length GST-ScElp1; in assay [3]) was “binds” each time.
